The values below come from PMC2115308.

In assay [1] the target is Arg-Gly-Asp-directed receptors on LiBr melanoma cells (human (endogenous in LiBr)). Put plainly: radioligand binding.
For assay [2] the target is unchanged. Description: radioligand binding. This is another data set of the same source.

Values joined by “and” are separate entries in the source; they are usually repeats but may differ in a detail not shown here. Identical values can stand only once. Like-named read-outs stand apart in the source and are kept apart here. No end group written: not given here. *: point of attachment. 125I = [125I]*

On to KY(125I)GRGDSP [iodinated synthetic peptide KYGRGDSP], for which the specific cpm in assay [1] was 2660 cpm; in assay [2], 637 cpm and 494 cpm.
